# Patent US20030091568A1, “Inhibitors for the formation of soluble human CD23” (priority 2000, published 2003)
# B1: TIMP-3: tissue inhibitor of metalloproteinases 3 (protein, UniProt P35625 24-211, looked up)
# Metalloproteinase inhibitor 3: CTCSPSHPQDAFCNSDIVIRAKVVGKKLVKEGPFGTLVYTIKQMKMYRGFTKMPHVQYIHTEASESLCGLKLEVNKYQYLLTGRVYDGKMYTGLCNFVERWDQLTLSQRKGLNYRYHLGCNCKIKSCYYLPCFVTSKNECLWTDMLSNFGYPGYQSKHYACIRQKGGYCSWYRGWAPPDKSIINATDP
# Assays:
# ADAM9 = molecular target: T1, ADAM9 (Mus musculus, UniProt Q61072); assay: CD23 shedding in CHO AA8 clone 3 cells with tet-regulated ADAM9 "On" (s-CD23 ELISA); type: cell-based, murine; details: CHO AA8 clone 3, absence of tetracycline (ADAM9 "On"), 16 hours; 2 μM batimastat or 20 nM-1 μM TIMP; FIG. 3A
# T1 construct: expressed in transfected cells; host or cells: CHO AA8 Tet-Off cells (Clontech), clone 3, co-expressing human CD23b
# T1 sequence (Q61072 206-845 limits assumed): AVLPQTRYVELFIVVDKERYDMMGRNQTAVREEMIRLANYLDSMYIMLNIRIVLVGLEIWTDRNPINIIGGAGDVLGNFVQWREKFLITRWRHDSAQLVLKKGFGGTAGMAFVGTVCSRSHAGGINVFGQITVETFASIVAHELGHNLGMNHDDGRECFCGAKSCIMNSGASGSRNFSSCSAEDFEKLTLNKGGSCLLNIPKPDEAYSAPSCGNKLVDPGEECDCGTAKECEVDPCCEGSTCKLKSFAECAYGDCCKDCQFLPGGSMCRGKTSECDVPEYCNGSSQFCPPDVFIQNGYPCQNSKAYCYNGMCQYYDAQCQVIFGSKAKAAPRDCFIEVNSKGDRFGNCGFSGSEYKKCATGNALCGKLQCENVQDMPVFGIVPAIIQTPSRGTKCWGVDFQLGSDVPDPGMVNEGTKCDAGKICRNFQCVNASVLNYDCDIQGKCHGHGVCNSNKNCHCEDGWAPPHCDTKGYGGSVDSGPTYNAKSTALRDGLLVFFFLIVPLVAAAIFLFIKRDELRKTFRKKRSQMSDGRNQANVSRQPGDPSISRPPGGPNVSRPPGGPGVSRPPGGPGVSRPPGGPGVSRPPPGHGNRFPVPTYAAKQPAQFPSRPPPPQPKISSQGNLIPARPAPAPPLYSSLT
# Procedure: CHO AA8 cells (Clontech), which constitutively express human CD23b and a tet regulatable ADAM9 (clone 3, described above), were cultured in the absence of tetracycline (ADAM9 expression “On”) as well as the presence or absence of the metalloproteinase inhibitor batimastat (BB-94, British Biotechnology) as a broad spectrum MMP inhibitor, as well as various concentrations of either TIMP-1, TIMP-2 or TIMP-3. After 16 hours, aliquots of the respective culture supernatants were analysed by ELISA for the formation of s-CD23 (The Binding Site).
# […] cells were cultured in the presence (ADAM9 expression “Off”) or absence (ADAM9 expression “On”) of tetracylin (Tc). Under both conditions, the influence of batimastat (BB-94) on CD23 shedding was analyzed. The concentration of s-CD23 in the culture supernatants was determined by ELISA. In parallel, the produced s-CD23 cleavage products were analyzed by Western blot analyses (FIG. 4). Untransfected CHO AA8 cells (WT) were used as a negative control in the ELISA assays. In the absence of Tc (ADAM9 expression “On”), about 2-3 times the amount of s-CD23 was produced compared to cells kept in the presence of Tc (ADAM9 expression “Off”). […] The 33 kDa form of s-CD23 and, in minor amounts, the 25 kDa cleavage fragment were detected by Western blot analyses. […]
# ADAM17 (TACE) = ADAM17 (TACE) (Homo sapiens, UniProt P78536); details: stated as known; cited from earlier work
# Sequence of ADAM17 (TACE) (P78536 215-824, species assumed): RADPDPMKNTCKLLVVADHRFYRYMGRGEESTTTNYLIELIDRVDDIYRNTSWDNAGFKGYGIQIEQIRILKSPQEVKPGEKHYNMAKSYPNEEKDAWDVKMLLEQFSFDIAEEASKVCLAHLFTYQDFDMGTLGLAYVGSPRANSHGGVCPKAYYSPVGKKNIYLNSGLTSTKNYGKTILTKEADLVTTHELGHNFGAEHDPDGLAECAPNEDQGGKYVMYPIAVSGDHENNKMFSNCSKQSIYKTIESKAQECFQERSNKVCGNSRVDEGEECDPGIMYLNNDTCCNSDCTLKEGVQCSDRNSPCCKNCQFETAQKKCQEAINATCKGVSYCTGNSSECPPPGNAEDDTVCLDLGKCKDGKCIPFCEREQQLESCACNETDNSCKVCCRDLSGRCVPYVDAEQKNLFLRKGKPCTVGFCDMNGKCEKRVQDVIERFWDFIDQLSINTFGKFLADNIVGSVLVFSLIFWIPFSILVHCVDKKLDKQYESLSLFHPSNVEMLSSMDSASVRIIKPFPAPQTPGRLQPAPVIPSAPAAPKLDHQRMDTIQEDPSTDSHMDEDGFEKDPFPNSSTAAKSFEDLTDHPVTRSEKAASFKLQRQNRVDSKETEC
molecule,measurement,setting,value
TIMP-1: tissue inhibitor of metalloproteinases 1,block of proteolytic release of CD23 from the membrane (formation of s-CD23 by ELISA),ADAM9,could not be inhibited
B1,inhibition of ADAM17 (TACE),ADAM17 (TACE),inhibited
same,block of proteolytic release of CD23 from the membrane (formation of s-CD23 by ELISA),ADAM9,could not be inhibited
